# Like-named read-outs stand apart in the source and are kept apart here. Numbered stars: 1 amine (or outer) side, 2 acyl side, 3 side chain; on linkers, the order of the positions; unused ones are H or OH. Square brackets hold non-standard residues; d marks the D form. Side chains are listed from the residue outwards. Peptide text beside a SMILES is read from it. * marks the point of attachment. EuK = O=C(O)CC[C@H](NC(=O)N[C@@H](CCCCN*)C(=O)O)C(=O)O; Pteroyl = Nc1nc2ncc(CNc3ccc(C(=O)*)cc3)nc2c(=O)[nH]1; γGlu = O=C(O)[C@H](CCC(=O)[*:2])N[*:1]; X1 = O=C(Cc1ccc(CN[*:1])cc1)[*:2]; Pra = C#CC[C@H](N)C(=O)O; CO = O=C([*:1])[*:2]
# Assays:
# [1] = system: HT-29 cell subcutaneous xenograft tumor; test: Pharmacodynamic assessment, HT-29 xenograft model; assay type: in vivo, BALB/c nude mouse
# From the text: Objective: Pre-clinical assessment of the efficacy of CR202 series of compounds for treating BALB/c nude mouse model with HT-29 cell subcutaneous xenograft tumor.
# Procedures: HT-29 cells were subcutaneously grafted at the right back of the mice, and the mice were randomized when the mean tumor volume reached 100-150 mm^3. After the administration, the routine monitoring included the effect on tumor growth and the effect of treatment on the normal behavior of the animals, specifically the activity, food and water intake, weight gain or loss, the eyes, the hair, and other abnormal conditions. Clinical symptoms observed during the study were recorded in the raw data. After the administration was started, the body weight and tumor size of the mice were measured periodically. The tumor volume was calculated using the following formula: V=1/2×(a×b^2), where a and b denote the long diameter and short diameter of the tumor, respectively.
# [2] = system: 22RV1; assay type: cell-based, human; conditions: 22RV1, 72 h, CellTiter-Glo
# From the text: (§1) Negative and blank controls were set.
# [3] = system: MDA-MB-231; assay type: cell-based, human; conditions: MDA-MB-231, 72 h, CellTiter-Glo
# From the text: as §1
# [4] = Solubility study in PBS; assay type: physicochemical; conditions: aqueous buffer, thermodynamic from solid; PBS (pH 7.2 to 7.4); read-out: Solubility, concentration
# Protocol: The mixture was vortexed for 2 min until the solid was dissolved. The solubility was calculated as: C=m/V, C: concentration, m: sample weight, V: PBS total volume.
# [5] = system: plasmin; conditions: PBS pH 7.4, 37° C.
# Protocol: • 1) The compounds were formulated into 500 μg/mL stock solutions with PBS (pH 7.4); • 2) 60 μL of 500 μg/mL compound stock solution was added to 420 μL PBS (pH 7.4), before 60 μL of 0.2 U/mL plasmin (or 60 μL of 0.5 U/mL sulfatase) was added, and the mixture was well mixed by gentle shaking; • 3) The cleavage reaction system in step 2) was transferred to a thermostatic incubator at 37° C. for 0 h, 1 h, 2 h, 4 h, or 24 h of incubation. Samples were taken and loaded at various time points for LC-MS analysis.
# [6] = Plasma stability study 2; assay type: in vitro ADME; conditions: mouse plasma, 37° C.; for remaining at 0.5 h, 100 μg/mL / remaining at 1 h, 100 μg/mL / remaining at 2 h, 100 μg/mL / remaining at 4 h, 100 μg/mL / remaining at 6 h, 100 μg/mL: read-out: Residual rate of principal component
# Protocol: • 1) The conjugate compounds were prepared into 1 mg/mL stock solutions with 0.1% TFA-acetonitrile water (1:1); • 2) 10 μL of 1 mg/mL compound stock solution was added into 90 μL of fresh plasma, and the mixture was well mixed by gentle shaking, and transferred to a thermostatic incubator at 37° C. for 0 h, 0.5 h, 1 h, 2 h, 4 h, 6 h, or 24 h of incubation; • 3) at the time points, samples were taken out and 300 μL of methanol solution (containing 10 ng/ml of terfenadine) was added for protein precipitation; • 4) the mixture was centrifuged (13 min, 4° C., 12000 rpm) and the supernatant was collected, and preserved in a −80° C. refrigerator; after collection, the samples were loaded for LC-MS analysis.
# [7] = 10.9 mg/kg i.v BIW×3, day 25 after grouping
# [8] = 22.7 mg/kg i.v BIW×3, day 25 after grouping
structure (smiles),measurement,setting,value
CCOCCNS(=O)(=O)NC(=O)OCCOCCNC(=O)[C@H](Cc1cn(CCOC(=O)NS(=O)(=O)NCCOCCOC(=O)N[C@H](C(=O)N[C@@H](CCCNC(N)=O)C(=O)Nc2ccc(COC(=O)N(CCOCCC#Cc3cccc4c3CN(C3CCC(=O)NC3=O)C4=O)[C@H]3CC[C@@H](n4cc(-c5ccc(Nc6ncc7c(n6)N(C)[C@H](CC)C(=O)N7C)cc5)nn4)CC3)cc2)C(C)C)nn1)NC(=O)CC[C@H](NC(=O)c1ccc(NCc2cnc3nc(N)nc(O)c3n2)cc1)C(=O)O (stereo partly drawn) [CR202HR],Mean tumor volume,[1]; [7],946.05 mm^3
same,TGI,[1]; [7],54.51%
same,Mean tumor volume,[1]; [8],614.73 mm^3
same,TGI,[1]; [8],70.44%
CC[C@@H]1C(=O)N(C)c2cnc(Nc3ccc(-c4cn([C@H]5CC[C@@H](N(CCOCCC#Cc6cccc7c6CN(C6CCC(=O)NC6=O)C7=O)C(=O)OCc6ccc(NC(=O)[C@H](CCCNC(N)=O)NC(=O)[C@@H](NC(=O)OCCOCCNS(=O)(=O)NC(=O)OCCn7cc(C[C@H](NC(=O)[C@H](CCCCN)NC(=O)[C@H](CC(=O)O)NC(=O)[C@H](CC(=O)O)NC(=O)Cc8ccc(CNC(=O)NCCCC[C@H](NC(=O)N[C@@H](CCC(=O)O)C(=O)O)C(=O)O)cc8)C(=O)N[C@@H](CCCCNC(=O)CC[C@H](NC(=O)c8ccc(NCc9cnc%10[nH]c(N)nc(=O)c%10n9)cc8)C(=O)O)C(N)=O)nn7)C(C)C)cc6)CC5)nn4)cc3OC)nc2N1C1CCCC1 (stereo partly drawn) [CR202GM],IC50,[2],287 nM
same,IC50,[3],512 nM
CC[C@@H]1C(=O)N(C)c2cnc(Nc3ccc(-c4cn([C@H]5CC[C@@H](N(CCOCCC#Cc6cccc7c6CN(C6CCC(=O)NC6=O)C7=O)C(=O)OCc6ccc(NC(=O)[C@H](CCCNC(N)=O)NC(=O)[C@@H](NC(=O)COCCOCCn7cc(C[C@H](NC(=O)[C@H](CCCCN)NC(=O)[C@H](CC(=O)O)NC(=O)[C@H](CC(=O)O)NC(=O)Cc8ccc(CNC(=O)NCCCC[C@H](NC(=O)N[C@@H](CCC(=O)O)C(=O)O)C(=O)O)cc8)C(=O)N[C@@H](CCCCNC(=O)CC[C@H](NC(=O)c8ccc(NCc9cnc%10[nH]c(N)nc(=O)c%10n9)cc8)C(=O)O)C(N)=O)nn7)C(C)C)c(OC)c6)CC5)nn4)cc3OC)nc2N1C1CCCC1 (stereo partly drawn) [CR202FU],IC50,[2],469 nM
same,IC50,[3],792 nM
CC[C@@H]1C(=O)N(C)c2cnc(Nc3ccc(-c4cn([C@H]5CC[C@@H](N(CCOCCC#Cc6cccc7c6CN(C6CCC(=O)NC6=O)C7=O)C(=O)OC[C@@H](C)SSC[C@H](NC(=O)[C@H](CCCCN)NC(=O)[C@H](CC(=O)O)NC(=O)[C@H](CC(=O)O)NC(=O)Cc6ccc(CNC(=O)NCCCC[C@H](NC(=O)N[C@@H](CCC(=O)O)C(=O)O)C(=O)O)cc6)C(=O)N[C@@H](CCCCNC(=O)CC[C@H](NC(=O)c6ccc(NCc7cnc8[nH]c(N)nc(=O)c8n7)cc6)C(=O)O)C(N)=O)CC5)nn4)cc3OC)nc2N1C1CCCC1 (stereo partly drawn) [CR202HV],IC50,[2],155 nM
same,IC50,[3],14.2 nM
CC[C@@H]1C(=O)N(C)c2cnc(Nc3ccc(-c4cn([C@H]5CC[C@@H](N(CCOCCC#Cc6cccc7c6CN(C6CCC(=O)NC6=O)C7=O)C(=O)OCc6ccc(NC(=O)[C@H](CCCCN)NC(=O)[C@H](CC(C)C)NC(=O)[C@@H](NC(=O)COCCOCCn7cc(C[C@H](NC(=O)[C@H](CCCCN)NC(=O)[C@H](CC(=O)O)NC(=O)[C@H](CC(=O)O)NC(=O)Cc8ccc(CNC(=O)NCCCC[C@H](NC(=O)N[C@@H](CCC(=O)O)C(=O)O)C(=O)O)cc8)C(=O)N[C@@H](CCCCNC(=O)CC[C@H](NC(=O)c8ccc(NCc9cnc%10[nH]c(N)nc(=O)c%10n9)cc8)C(=O)O)C(N)=O)nn7)C(C)C)cc6)CC5)nn4)cc3OC)nc2N1C1CCCC1 (stereo partly drawn) [CR202V8],solubility,[4],7500 µg/mL
same,CR20274 release rate of compounds after cleavage,[5]; 0 h,22%
same,Principal component residue of compounds after cleavage,[5]; 0 h,8%
same,CR20274 release rate of compounds after cleavage,[5]; 1 h,100%
same,Principal component residue of compounds after cleavage,[5]; 1 h,1%
same,CR20274 release rate of compounds after cleavage,[5]; 2 h,100%
same,Principal component residue of compounds after cleavage,[5]; 2 h,1%
same,CR20274 release rate of compounds after cleavage,[5]; 4 h,100%
same,Principal component residue of compounds after cleavage,[5]; 4 h,0%
same,CR20274 release rate of compounds after cleavage,[5]; 24 h,100%
same,Principal component residue of compounds after cleavage,[5]; 24 h,0%
same,CR20274 release rate (actual release/theoretical release),[6]; 0 h,0.06%
same,Residual rate of principal component,[6]; 0 h,78.37%
same,CR20274 release rate (actual release/theoretical release),[6]; 0.5 h,1.94%
same,"remaining at 0.5 h, 100 μg/mL",[6]; 0.5 h,50.9%
same,CR20274 release rate (actual release/theoretical release),[6]; 1 h,5.56%
same,"remaining at 1 h, 100 μg/mL",[6]; 1 h,59.9%
same,CR20274 release rate (actual release/theoretical release),[6]; 2 h,7.07%
same,"remaining at 2 h, 100 μg/mL",[6]; 2 h,49.5%
same,CR20274 release rate (actual release/theoretical release),[6]; 4 h,14.20%
same,"remaining at 4 h, 100 μg/mL",[6]; 4 h,41.2%
same,CR20274 release rate (actual release/theoretical release),[6]; 6 h,14.58%
same,"remaining at 6 h, 100 μg/mL",[6]; 6 h,32.5%
same,CR20274 release rate (actual release/theoretical release),[6]; 24 h,105.58%
same,Residual rate of principal component,[6]; 24 h,−2.40%
same,IC50,[2],20.5 nM
same,IC50,[3],24.1 nM
C#CC[C@H](NC(=O)[C@H](CCCCN)NC(=O)[C@H](CC(=O)O)NC(=O)[C@H](CC(=O)O)NC(=O)Cc1ccc(CNC(=O)NCCCC[C@H](NC(=O)N[C@@H](CCC(=O)O)C(=O)O)C(=O)O)cc1)C(=O)N[C@@H](CCCCNC(=O)CC[C@H](NC(=O)c1ccc(NCc2cnc3[nH]c(N)nc(=O)c3n2)cc1)C(=O)O)C(N)=O [CR202W4] ({EuK-CO}-[X1]DDK[Pra]K([γGlu-Pteroyl])-NH2),solubility,[4],2800 µg/mL
CC[C@@H]1C(=O)N(C)c2cnc(Nc3ccc(-c4cn([C@H]5CC[C@@H](N(CCOCCC#Cc6cccc7c6CN(C6CCC(=O)NC6=O)C7=O)C(=O)OCc6ccc(NC(=O)[C@H](CC(N)=O)NC(=O)[C@H](CC(N)=O)NC(=O)CNC(=O)COCCOCCn7cc(C[C@H](NC(=O)[C@H](CCCCN)NC(=O)[C@H](CC(=O)O)NC(=O)[C@H](CC(=O)O)NC(=O)Cc8ccc(CNC(=O)NCCCC[C@H](NC(=O)N[C@@H](CCC(=O)O)C(=O)O)C(=O)O)cc8)C(=O)N[C@@H](CCCCNC(=O)CC[C@H](NC(=O)c8ccc(NCc9cnc%10[nH]c(N)nc(=O)c%10n9)cc8)C(=O)O)C(N)=O)nn7)cc6)CC5)nn4)cc3OC)nc2N1C1CCCC1 (stereo partly drawn) [CR202V9],solubility,[4],15800 µg/mL
same,CR20274 release rate (actual release/theoretical release),[6]; 0 h,0.11%
same,Residual rate of principal component,[6]; 0 h,99.22%
same,CR20274 release rate (actual release/theoretical release),[6]; 0.5 h,0.17%
same,"remaining at 0.5 h, 100 μg/mL",[6]; 0.5 h,99.8%
same,CR20274 release rate (actual release/theoretical release),[6]; 1 h,0.22%
same,"remaining at 1 h, 100 μg/mL",[6]; 1 h,98.4%
same,CR20274 release rate (actual release/theoretical release),[6]; 2 h,0.21%
same,"remaining at 2 h, 100 μg/mL",[6]; 2 h,89.6%
same,CR20274 release rate (actual release/theoretical release),[6]; 4 h,0.25%
same,"remaining at 4 h, 100 μg/mL",[6]; 4 h,67.1%
same,CR20274 release rate (actual release/theoretical release),[6]; 6 h,0.30%
same,"remaining at 6 h, 100 μg/mL",[6]; 6 h,66.3%
same,CR20274 release rate (actual release/theoretical release),[6]; 24 h,1.46%
same,Residual rate of principal component,[6]; 24 h,0.62%
CC[C@@H]1C(=O)N(C)c2cnc(Nc3ccc(-c4cn([C@H]5CC[C@@H](N(CCOCCC#Cc6cccc7c6CN(C6CCC(=O)NC6=O)C7=O)C(=O)CNC(=O)[C@@H]6CCCN6C(=O)[C@H](CCCNC(N)=O)NC(=O)[C@@H](NC(=O)COCCOCCn6cc(C[C@H](NC(=O)[C@H](CCCCN)NC(=O)[C@H](CC(=O)O)NC(=O)[C@H](CC(=O)O)NC(=O)Cc7ccc(CNC(=O)NCCCC[C@H](NC(=O)N[C@@H](CCC(=O)O)C(=O)O)C(=O)O)cc7)C(=O)N[C@@H](CCCCNC(=O)CC[C@H](NC(=O)c7ccc(NCc8cnc9[nH]c(N)nc(=O)c9n8)cc7)C(=O)O)C(N)=O)nn6)C(C)C)CC5)nn4)cc3OC)nc2N1C1CCCC1 (stereo partly drawn) [CR202GQ],IC50,[2],3160 nM
same,IC50,[3],4480 nM
CC[C@@H]1C(=O)N(C)c2cnc(Nc3ccc(-c4cn([C@H]5CC[C@@H](N(CCOCCC#Cc6cccc7c6CN(C6CCC(=O)NC6=O)C7=O)C(=O)NCCNC(=O)OCc6ccc(NC(=O)[C@H](CCCNC(N)=O)NC(=O)[C@@H](NC(=O)COCCOCCn7cc(C[C@H](NC(=O)[C@H](CCCCN)NC(=O)[C@H](CC(=O)O)NC(=O)[C@H](CC(=O)O)NC(=O)Cc8ccc(CNC(=O)NCCCC[C@H](NC(=O)N[C@@H](CCC(=O)O)C(=O)O)C(=O)O)cc8)C(=O)N[C@@H](CCCCNC(=O)CC[C@H](NC(=O)c8ccc(NCc9cnc%10[nH]c(N)nc(=O)c%10n9)cc8)C(=O)O)C(N)=O)nn7)C(C)C)cc6)CC5)nn4)cc3OC)nc2N1C1CCCC1 (stereo partly drawn) [CR202HJ],IC50,[2],1220 nM
same,IC50,[3],3650 nM
